{"source": "patent US20250230222A1", "about": "(NORTHWESTERN UNIVERSITY, published 2025)", "binders": {"B1": {"name": "IgG 106/107 (antibody, V domains shown)", "VH": "EVQLVESGGGLVQPGGSLRLSCVASGITVSANYMSWVRQAPGKGLEWVSVIYSGGSTFYADSVKGRFTISRDNSKNTLYLQMNNLRADDTAVYSCARDFRGATAFDIWGQGTMVTVSS", "VL": "QSALTQPASVSGSPGQSITISCTATSSDVDDYNYVSWYQQHPGKAPKLLIYDVNNRPSGVSNRFSGSKSGNTASLTISGLQAEDEADYYCSSYTSSSTGVFGSGTKVTVLG"}}, "molecular_target": "SARS-nCoV-2 Spike RBD (Raybiotech, catalog no. 230-30162), recombinant wildtype (SARS-CoV-2, UniProt P0DTC2 319-541)", "data": [{"binder": "B1", "values": [{"measurement": "IC50", "value": "< 500", "unit": "pM"}]}]}
